B1: sim3: SUMOylation-deficient mutant of NPR1 (protein)
chain: MDTTIDGFADSYEISSTSFVATDNTDSSIVYLAAEQVLTGPDVSALQLLSNSFESVFDSPDDFYSDAKLVLSDGREVSFHRCVLSARSSFFKSALAAAKKEKDSNNTAAVKLELKEIAKDYEVGFDSVVTVLAYVYSSRVRPPPKGVSECADENCCHVACRPAVDFMLEVLYLAFIFKIPELITLYQRHLLDVVDKVVIEDTLVILKLANICGKACMKLLDRCKEIIVKSNVDMVSLEKSLPEELVKEIIDRRKELGLEVPKVKKHVSNVHKALDSDDIELVKLLLKEDHTNLDDACALHFAVAYCNVKTATDLLKLDLADVNHRNPRGYTVLHVAAMRKEPQLAASALEKGASASEATLEGRTALMIAKQATMAVECNNIPEQCKHSLKGRLCVEILEQEDKREQIPRDVPPSFAVAADELKMTLLDLENRVALAQRLFPTEAQAAMEIAEMKGTCEFIVTSLEPDRLTGTKRTSPGVKIAPFRILEEHQSRLKALSKTVELGKRFFPRCSAVLDQIMNCEDLTQLACGEDDTAEKRLQKKQRYMEIQETLKKAFSEDNLELGNSSLTDSTSSTSKSTGGKRSNRKLSHRRR
modifications: left off: small tags and cut ends
notes: SUMOylation-deficient mutant of NPR1
B2: S55/59D: phosphomimic mutant of NPR1 at S55/59 (protein)
chain: MDTTIDGFADSYEISSTSFVATDNTDSSIVYLAAEQVLTGPDVSALQLLSNSFEDVFDDPDDFYSDAKLVLSDGREVSFHRCVLSARSSFFKSALAAAKKEKDSNNTAAVKLELKEIAKDYEVGFDSVVTVLAYVYSSRVRPPPKGVSECADENCCHVACRPAVDFMLEVLYLAFIFKIPELITLYQRHLLDVVDKVVIEDTLVILKLANICGKACMKLLDRCKEIIVKSNVDMVSLEKSLPEELVKEIIDRRKELGLEVPKVKKHVSNVHKALDSDDIELVKLLLKEDHTNLDDACALHFAVAYCNVKTATDLLKLDLADVNHRNPRGYTVLHVAAMRKEPQLILSLLEKGASASEATLEGRTALMIAKQATMAVECNNIPEQCKHSLKGRLCVEILEQEDKREQIPRDVPPSFAVAADELKMTLLDLENRVALAQRLFPTEAQAAMEIAEMKGTCEFIVTSLEPDRLTGTKRTSPGVKIAPFRILEEHQSRLKALSKTVELGKRFFPRCSAVLDQIMNCEDLTQLACGEDDTAEKRLQKKQRYMEIQETLKKAFSEDNLELGNSSLTDSTSSTSKSTGGKRSNRKLSHRRR
modifications: left off: small tags and cut ends

System: CUL3
Assay: BiFC assay of interaction with CUL3
Type: cell-based, Arabidopsis thaliana
Details: 1 mM SA for 5 hr
Description: Plasmid construction and E. coli-based ubiquitination: The coding sequences for all Arabidopsis genes were amplified from cDNA. Point mutations of AtNPR1 (AT1G64280) were generated using the QuikChange II site-directed mutagenesis kit (Agilent). Overlap PCR was used to generate the deletion/truncation mutations of AtCUL3A (AT1G26830) and AtNPR1. The WT and mutated coding sequences for all genes and gene fusions were sub-cloned into the pDONR207 gateway donor vector and confirmed by sequencing. The obtained entry vectors were recombined into either plant or E. coli destination vectors without or with an N- or C-terminal tag. For in planta expression, genes were recombined into the plant binary vectors pK7FWG2, pSITE-4NB and pLN462 to generate C-terminal eGFP, mCherry and HA fusions, respectively; into pK7WGF2, pEG201, pEG202, pEG203 and pEG204 to generate N-terminal eGFP, HA, FLAG, Myc and V5 fusions, respectively. For co-expression of NPR1 and CUL3 in E. coli, NPR1 or its mutant/truncation variants were first recombined into pDEST15 vector to generate N-terminal GST fusions (GST-NPR1). Next, E. coli-codon-optimized coding sequence of AtCUL3A fused to the Myc tag was amplified from pEG203-CUL3 and inserted between NdeI and XhoI in the MCS-II of pCDFDuet-1 to generate pCDFDuet-1:Myc-CUL3 plasmid. The two plasmids, pDEST15-NPR1 and pCDFDuet-1:Myc-CUL3, were co-transformed into the E. coli strain BL21(DE3) and protein expression was induced with 0.25 mM IPTG for 12 hr at 20° C. For co-expression of NPR1 and EDS1 in E. coli, the coding sequence of AtEDS1 (AT3G48090) fused to FLAG tag was inserted between NcoI and NotI in MCS-I of pETDuet-1 to first generate the pETDuet-1:FLAG-EDS1 plasmid. […] For bimolecular fluorescence complementation (BiFC), entry vectors carrying the coding sequences of genes and their mutant variants were recombined into the pSITE-cEYFP-N1 binary vector for C-terminal fusion with the cYFP half (YC), or into the pSITE-nEYFP-C1 for N-terminal fusion with the nYFP half (YN). […]

Molecule | BiFC signal of interaction with CUL3
NPR1: wild-type Arabidopsis thaliana NPR1 protein, positive regulator of systemic acquired resistance | clear interactions with CUL3 in discrete cytoplasmic condensates
B1 | more intense
B2 | significantly weaker BiFC signal

Source: patent publication US20230227838A1, “ENHANCED CELL SURVIVAL AGAINST BIOTIC AND ABIOTIC STRESSES THROUGH SALICYLICK ACID-INDUCED NPR1 CONDENSATES” (priority 2020, published 2023)
